Results published in article PMC6927765.
Like-named read-outs stand apart in the source and are kept apart here.

B1: Mouse Fc gamma receptor FCGR4 (receptor)
chain: GLQKAVVNLDPKWVRVLEEDSVTLRCQGTFSPEDNSIKWFHNESLIPHQDANYVIQSARVKDSGMYRCQTALSTISDPVQLEVHMGWLLLQTTKWLFQEGDPIHLRCHSWQNRPVRKVTYLQNGKGKKYFHENSELLIPKATHNDSGSYFCRGLIGHNNKSSASFRISLGDPGSPSMFPPWHQITFCLLIGLLFAIDTVLYFSVRRGLQSPVADYEEPKIQWSKEPQDK
B2: Mouse Fc gamma receptor FCGR1 (receptor)
chain: EVVNATKAVITLQPPWVSIFQKENVTLWCEGPHLPGDSSTQWFINGTAVQISTPSYSIPEASFQDSGEYRCQIGSSMPSDPVQLQIHNDWLLLQASRRVLTEGEPLALRCHGWKNKLVYNVVFYRNGKSFQFSSDSEVAILKTNLSHSGIYHCSGTGRHRYTSAGVSITVKELFTTPVLRASVSSPFPEGSLVTLNCETNLLLQRPGLQLHFSFYVGSKILEYRNTSSEYHIARAEREDAGFYWCEVATEDSSVLKRSPELELQVLGPQSSAPVWFHILFYLSVGIMFSLNTVLYVKIHRLQREKKYNLEVPLVSEQGKKANSFQQVRSDGVYEEVTATASQTTPKEAPDGPRSSVGDCGPEQPEPLPPSDSTGAQTSQS
B3: Mouse Fc gamma receptor FCGR3 (receptor)
chain: ALPKAVVKLDPPWIQVLKEDMVTLMCEGTHNPGNSSTQWFHNGRSIRSQVQASYTFKATVNDSGEYRCQMEQTRLSDPVDLGVISDWLLLQTPQRVFLEGETITLRCHSWRNKLLNRISFFHNEKSVRYHHYKSNFSIPKANHSHSGDYYCKGSLGSTQHQSKPVTITVQDPATTSSISLVWYHTAFSLVMCLLFAVDTGLYFYVRRNLQTPREYWRKSLSIRKHQAPQDK

How the values were obtained:
Assay in all cases: SPR
[1] = target: CD3 mG2a (not stated | mouse)
[2] = target: CD3/CD20 mG2aH4 bispecific antibody (not stated | mouse)
[3] = target: CD3 mG1 D265A (not stated | mouse)
[4] = target: CD3 mG2a D265A (not stated | mouse)
[5] = target: CD3/CD20 mG1KD D265A bispecific antibody (not stated | mouse)
[6] = target: CD3 mG2a (not stated | mouse); remark: listed apart in the source
[7] = target: CD3/CD20 mG2aH4 bispecific antibody (not stated | mouse); remark: listed apart in the source

Row | Molecule | Kd [1] | Kd [6] | Kd [7] | other results
1 | Mouse Fc gamma receptor FCGR2 (from UniProt P08101 30-330) | 1570 nM | – | – | Kd [2]: 1990 nM
2 | Mouse FcRn (from UniProt Q61559 22-365; P01887 21-119) (receptor) | 320 nM | – | – | Kd [3]: 640 nM; Kd [4]: 310 nM; Kd [5]: 670 nM
3 | B1 | – | 18 nM | 39 nM | –
4 | B2 | – | 21 nM | 33 nM | –
5 | B3 | – | 625 nM | 1030 nM | –
